Substitutions are numbered along the chain they refer to.
T1: human IL-2Rγ (common cytokine receptor γ-chain) (human, UniProt P31785 23-262, limits assumed)
T1 construct: Recombinant protein coated on the plate or immobilised on a CM5 chip; also called hu IL-2R; CD132
T1 sequence: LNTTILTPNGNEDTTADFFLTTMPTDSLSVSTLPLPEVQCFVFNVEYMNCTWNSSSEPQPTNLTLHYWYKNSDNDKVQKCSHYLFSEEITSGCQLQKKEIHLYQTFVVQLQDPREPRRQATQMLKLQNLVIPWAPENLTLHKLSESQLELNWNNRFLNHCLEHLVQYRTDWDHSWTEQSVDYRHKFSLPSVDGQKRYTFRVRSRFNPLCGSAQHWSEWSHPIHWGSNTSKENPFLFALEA

T2: mouse IL-2Rγ (mouse, UniProt P34902 23-263)
T2 construct: also called mo IL-2R
T2 sequence (looked up): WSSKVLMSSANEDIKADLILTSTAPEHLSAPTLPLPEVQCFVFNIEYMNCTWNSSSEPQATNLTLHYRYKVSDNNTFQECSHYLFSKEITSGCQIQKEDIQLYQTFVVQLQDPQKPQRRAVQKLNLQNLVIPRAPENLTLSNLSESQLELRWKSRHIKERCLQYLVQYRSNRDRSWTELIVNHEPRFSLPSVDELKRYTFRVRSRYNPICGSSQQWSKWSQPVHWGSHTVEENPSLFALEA

B1: 38-MP07A11 (VHH)
VHH: QVQLVESGGGLVQAGGSLRLSCAASGRSLSRDAMGWFRQAPGKEREFVAVMSWGGDTFYTDSVEGRFTFSRDNAKNAVYLEMNDLQPEDTAVYYCAAAPTSFATTAYSSSNSYSYWGRGTQVTVSS
notes: VHH in periplasmic extract; also called FJ1427_P035MP07A11; clone nr
B2: FJ1427_P035MP04D01 (VHH)
VHH: QVQLVESGGGLVQAGGSLRLSCAASGRTLSRYAMGWFRQAPGKEREFVTANSWGGDTYYADSVQGRFTFSRDNAKNTVYLQMNSLQPEDTAVYYCAAAPTSFATTAYSSSNSYAYWGQGTQVTVSS
notes: VHH in periplasmic extract; also called clone nr
B3: FJ1427_P035MP04D10 (VHH)
VHH: B2 VHH
notes: VHH in periplasmic extract; also called clone nr; 364
B4: FJ1427_P035MP04E08 (VHH)
VHH: B2 VHH
notes: as for B2
B5: FJ1427_P035MP04E01 (VHH)
VHH: B2 VHH
notes: as for B2
B6: FJ1427_P035MP04B09 (VHH)
VHH: B2 VHH
notes: as for B2
B7: FJ1427_P035MP04F06 (VHH)
VHH: B2 VHH
notes: as for B2
B8: FJ1427_P035MP04F01 (VHH)
VHH: B2 VHH
notes: as for B2
B9: FJ1427_P035MP04H01 (VHH)
VHH: B2 VHH
notes: as for B2
B10: FJ1427_P035MP04G02 (VHH)
VHH: B2 VHH
notes: as for B2
B11: FJ1427_P035MP04E11 (VHH)
VHH: B2 VHH
notes: as for B2
B12: FJ1427_P035MP04C02 (VHH)
VHH: B2 VHH
notes: as for B2
B13: FJ1427_P035MP04A02 (VHH)
VHH: B2 VHH
notes: as for B2
B14: FJ1427_P035MP04H05 (VHH)
VHH: B2 VHH
notes: as for B2
B15: FJ1427_P035MP04E09 (VHH)
VHH: B2 VHH with F67S
notes: as for B2
B16: FJ1427_P035MP04H03 (VHH)
VHH: B2 VHH with V2L, T49A, N51D, Y58F, Q64E, T77A, V78A, V92T, A97G, A114R
notes: as for B2

Tests used:
[1] = molecular target: T1, human IL-2Rγ (common cytokine receptor …); assay: SPR off-rate ranking, periplasmic extract on immobilised protein
How it was run: (§1)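 CM5 chip, amine coupling (acetate buffer), ~2500 RU receptor. VHH P.E. flowed at 30 uL/min; off-rate read over 120 s.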

mouse IL-2Rγ [2] = molecular target: T2, mouse IL-2Rγ; assay: as above
How it was run: as §1

[3] = molecular target: T1, human IL-2Rγ (common cytokine receptor …); assay: PE binding ELISA, periplasmic extract on coated protein
How it was run: (§2)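 Plates were coated overnight at 4° C with human or mouse IL-2R chain protein, and free sites blocked for 1 hour in 4% Marvel in PBS. Periplasmic extracts diluted 1:5 in 1% Marvel/PBS then bound for 1 hour, with specificity assessed from 450 nm absorbance relative to negative controls.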

mouse IL-2Rγ [4] = molecular target: T2, mouse IL-2Rγ; assay: as above
How it was run: as §2

Row | Binder | koff [1] | koff (mouse IL-2Rγ [2]) | OD (PE binding ELISA) [3] | OD (PE binding ELISA) (mouse IL-2Rγ [4])
1 | B1 | 0.00235 s⁻¹ | 0.0149 s⁻¹ | 1.31 OD450 nm | 0.173 OD450 nm
2 | B2 | 0.00182 s⁻¹ | 0.113 s⁻¹ | 1.02 OD450 nm | 0.066 OD450 nm
3 | B3 | 0.00139 s⁻¹ | 0.12 s⁻¹ | 1.26 OD450 nm | 0.077 OD450 nm
4 | B4 | 0.00197 s⁻¹ | 0.122 s⁻¹ | 1.23 OD450 nm | 0.078 OD450 nm
5 | B5 | 0.00266 s⁻¹ | 0.109 s⁻¹ | 1.08 OD450 nm | 0.067 OD450 nm
6 | B6 | 0.00146 s⁻¹ | 0.122 s⁻¹ | 1.54 OD450 nm | 0.083 OD450 nm
7 | B7 | 0.00298 s⁻¹ | 0.116 s⁻¹ | 1.41 OD450 nm | 0.077 OD450 nm
8 | B8 | 0.00268 s⁻¹ | 0.11 s⁻¹ | 1.66 OD450 nm | 0.085 OD450 nm
9 | B9 | 0.00206 s⁻¹ | 0.104 s⁻¹ | 1.67 OD450 nm | 0.109 OD450 nm
10 | B10 | 0.00148 s⁻¹ | 0.114 s⁻¹ | 0.98 OD450 nm | 0.066 OD450 nm
11 | B11 | 0.00149 s⁻¹ | 0.117 s⁻¹ | 0.94 OD450 nm | 0.065 OD450 nm
12 | B12 | 0.00196 s⁻¹ | 0.126 s⁻¹ | 1 OD450 nm | 0.07 OD450 nm
13 | B13 | 0.00306 s⁻¹ | 0.126 s⁻¹ | 1.45 OD450 nm | 0.085 OD450 nm
14 | B14 | 0.00273 s⁻¹ | 0.108 s⁻¹ | 1.57 OD450 nm | 0.08 OD450 nm
15 | B15 | 0.00162 s⁻¹ | 0.109 s⁻¹ | 0.652 OD450 nm | 0.07 OD450 nm
16 | B16 | 0.001 s⁻¹ | 0.0297 s⁻¹ | 1.25 OD450 nm | 0.442 OD450 nm
